Assay results as given in the RNAGym collection of RNA variant scans (doi:10.7554/elife.80360).

B1: HDV Ribozyme (parent)
chain: GGCCGGCAUGGUCCCAGCCUCCUCGCUGGCGCCGGCUGGGCAACAUUCCGAGGGGACCGUCCCCUCGGUAAUGGCGAAUGGGACCCA

Variants of: B1
Test: self-cleavage, relative activity (ratio to wild type); higher = more cleavage; co-transcriptional

Row | Variant | self-cleavage
1 | C33A C64U | 0.086
2 | G6C A83C | 0.0875
3 | C19G C41U | 0.155
4 | C19G G34U | 0.095
5 | G39U G53C | 0.831
6 | U37G C58G | 0.369
7 | C15G C41A | 0.529
8 | G50U G82C | 0.435
9 | C44U C62A | 0.665
10 | C57G G82C | 0.306
11 | C57A U60G | 0.831
12 | G11C U27C | 0.196
13 | C33G A56C | 0.113
14 | U65G G81C | 0.439
15 | C3G C24G | 0.102
16 | U12G G53U | 1.01
17 | C48G G73A | 0.623
18 | C18A G82U | 0.0723
19 | C22G A43U | 0.115
20 | C44A A56C | 0.853
21 | G53A C63A | 0.819
22 | U47A U69C | 0.764
23 | G1C G59U | 0.0437
24 | C4G U20G | 0

Row | Variant | self-cleavage
25 | C7G G25U | 0.0831
26 | C4U C57G | 0.629
27 | C41G C48A | 1.12
28 | C7A A42U | 0.108
29 | G40A G67U | 0.919
30 | G6U G74C | 0.0449
31 | C14G U79A | 0.266
32 | A16C G17C | 0.266
33 | G50U G67A | 0.959
34 | G11A G34A | 0.358
35 | G50U G73U | 0.402
36 | C26U C36A | 0
37 | C30G C49A | 0.116
38 | C24A C32U | 0.619
39 | C4U G28A | 0.0845
40 | C14A A71G | 0.499
41 | G1C C86A | 0.0978
42 | U20C A70C | 0.246
43 | A43U A87C | 0.314
44 | U9C C32U | 0.862
45 | C4U U9A | 0.739
46 | C18A G76C | 0.14
47 | G2A A87C | 0.273
48 | G39A C85G | 0.523

Row | Variant | self-cleavage
49 | C4G C86A | 0.554
50 | A56C U79G | 0.997
51 | G29C C30G | 0
52 | U46G G50U | 0.458
53 | U20C G54A | 0.145
54 | A8U C18A | 0.0554
55 | G54U U65G | 0.782
56 | G38A | 0.157
57 | G39C G55C | 0.31
58 | G6C C18G | 0
59 | C48G G80A | 0.4
60 | C30G G52U | 0.02
61 | C19G G68U | 0.119
62 | C13U U69G | 0.7
63 | C58A G76U | 1.05
64 | A16C C24G | 0.0692
65 | U47G G54A | 1.18
66 | C41U U46C | 0.734
67 | G10A C22U | 0.157
68 | U9G C21G | 0
69 | G29C A56G | 0.0615
70 | G38U A87C | 0.231
71 | G31A U65A | 0.366
72 | G6C A78C | 0.0831

Row | Variant | self-cleavage
73 | G55A C57G | 1.07
74 | C13U C64A | 0.807
75 | C13U C64G | 0.567
76 | U12C U72G | 0.128
77 | G10C G40C | 0.264
78 | C44A C62A | 0.708
79 | G5A A70G | 0.0504
80 | G1C U69G | 0.208
81 | C32A G40C | 0.134
82 | C36A C49U | 0.116
83 | U9C C48G | 1.44
84 | C4U U65G | 0.656
85 | C85U A87C | 0.933
86 | G28C A45G | 0.0811
87 | G31A | 0.503
88 | U12C U65A | 0.489
89 | C15A C22G | 0.113
90 | G40U U47C | 0.475
91 | G10U U23A | 0.604
92 | C7A G25U | 0.102
93 | G53U A87C | 0.984
94 | G53U A87U | 0.969
95 | C36U G40U | 0.602
96 | G31A G76U | 0.749

Row | Variant | self-cleavage
97 | C13U U37A | 0.0308
98 | G31A A87C | 0.385
99 | G34U A43C | 0.243
100 | G25C A70C | 0.0639
101 | G11C C19G | 0.0811
102 | G54C C57G | 1.05
103 | C7A U12A | 0.0978
104 | C7A U60C | 0.712
105 | C7A U60A | 0.665
106 | G74C A77C | 0.133
107 | G55C C61U | 1
108 | U12G A45C | 0.399
109 | G53C G67C | 0.427
110 | C61A C66A | 0.992
111 | G25U C49U | 0.481
112 | U9A C19A | 0.194
113 | G11A G25U | 0.0801
114 | C32A G68A | 0.185
115 | U27A C32G | 0.0545
116 | G2A G68A | 0.185
117 | G40C G55C | 0.347
118 | G5U G68U | 0.268
119 | C22G C24U | 0.104
120 | C21G U65C | 0.113

Row | Variant | self-cleavage
121 | A16G C75U | 0.178
122 | U9C G52C | 1.02
123 | G29A U65A | 0.0627
124 | G31U C84G | 0.138
125 | G31U C44A | 0.0707
126 | G2U A78C | 0.0198
127 | U9C G40A | 0.997
128 | G59C C64G | 0.892
129 | G2A U46G | 0.0817
130 | C48U U65G | 0.748
131 | A16G G54U | 0.72
132 | U20A C26A | 0.0594
133 | A8C U79G | 0.462
134 | U9C C86U | 1.35
135 | G34C G38A | 0.0959
136 | C49G G68U | 0.808
137 | G40U G67U | 0.757
138 | U47C G59A | 0.954
139 | G54U A87U | 0.973
140 | A8U A77C | 0.0665
141 | C33A C61G | 0.237
142 | A71C G82U | 0.298
143 | U23G U47G | 0.731
144 | C18A C22U | 0.0378

Row | Variant | self-cleavage
145 | G55A A70G | 0.89
146 | A16C G25U | 0
147 | A16G G76A | 1.07
148 | U60C G74A | 0.591
149 | C32A C41G | 0
150 | G67U G68A | 0.972
151 | G10U C44U | 0.459
152 | G52A U65G | 0.986
153 | G52A C85U | 0.923
154 | C26U G40A | 0.885
155 | G81U C86G | 0.27
156 | C15A C30G | 0.138
157 | C4G C22U | 0.0449
158 | A43C A51U | 0.324
159 | C14G A70C | 0.185
160 | C36G G52U | 0.14
161 | A8G G25C | 0.175
162 | G39C C84A | 0.19
163 | U60A U69G | 1.01
164 | C24G G52U | 0.0852
165 | U79A C86A | 0.688
166 | U20A C57U | 0.0707
167 | C57U C63A | 1.01
